Assay results taken from PMC4058850, “The Bifunctional Pyruvate Decarboxylase/Pyruvate Ferredoxin Oxidoreductase from Thermococcus guaymasensis” (Archaea, 2014).

Columns and labels:
PfPDC/POR [1] = target: T1, PfPDC/POR (Pyrococcus furiosus, UniProt Q51804+Q51805); assay: POR activity, pyruvate- and CoA-dependent methyl viologen reduction; format: biochemical; conditions: POR reaction; 80°C, pH 8.4, anaerobic; 100 μM CoASH, 5 mM pyruvate
T1 construct: gene porA; native, purified anaerobically from P. furiosus cells; no tag; dimer of heterotetramers, about 260 kDa; with Pyruvate synthase subunit PorD; Pyruvate/ketoisovalerate oxidoreductases common subunit gamma

TgPDC/POR [2] = target: T2, TgPDC/POR (Thermococcus guaymasensis, UniProt W8CQB2+W8CQR1); assay: POR activity; format: biochemical; conditions: POR reaction; concentration not given
T2 construct: gene porA; native, purified anaerobically from T. guaymasensis cells; no tag; dimer of heterotetramers, 258 kDa by gel filtration; with Pyruvate synthase subunit PorD; Pyruvate/ketoisovalerate oxidoreductases common subunit gamma
T2 sequence (W8CR61 1-105 partner, one chain of several): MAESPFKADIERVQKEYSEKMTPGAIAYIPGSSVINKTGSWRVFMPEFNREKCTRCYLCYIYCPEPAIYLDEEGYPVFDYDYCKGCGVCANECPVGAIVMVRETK
T2 sequence (W8CQB1 1-185 partner, one chain of several): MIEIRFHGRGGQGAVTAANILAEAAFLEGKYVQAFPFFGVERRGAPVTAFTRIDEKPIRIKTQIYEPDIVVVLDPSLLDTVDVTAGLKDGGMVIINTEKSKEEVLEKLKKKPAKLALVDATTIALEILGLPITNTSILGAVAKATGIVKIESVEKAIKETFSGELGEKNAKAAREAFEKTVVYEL

TgPDC/POR [3] = target: T2, TgPDC/POR; assay: PDC activity with desulfo-CoA substituted for CoA; format: biochemical; conditions: PDC reaction; 80°C, anaerobic
PfPDC/POR [4] = target: T1, PfPDC/POR; assay: PDC activity with desulfo-CoA substituted for CoA; format: biochemical; conditions: PDC reaction; 80°C, anaerobic
[5] = target: bifunctional pyruvate decarboxylase/pyruvate ferredoxin oxidoreductase from Thermococcus guaymasensis, heterotetramer of PorA, PorB, PorD and Por/VorG (Thermococcus guaymasensis (endogenous in DSM 11113)) (UniProt W8CQB2); assay: SEC; native enzyme purified from T. guaymasensis (about 1 mg) on HiLoad Superdex-200 in buffer E (50 mM Tris pH 7.8, 5% glycerol, 100 mM KCl, 2 mM DTT, 2 mM SDT), 2.5 mL/min, calibrated with protein standards; SDS-PAGE of the enzyme after the column; apparent Mr 258,000
purified protein = substrate: CC(=O)C(=O)O; assay: purified protein; format: biochemical, Thermococcus guaymasensis; conditions: POR (oxidative decarboxylation) reaction, 0.1 mM CoA, 1 mM MV, 0.4 mM TPP, Mg2+, pH 8.4 (optimal pH), 80°C, anaerobic
[6] = substrate: CC(=O)C(=O)O; assay: PDC activity, acetaldehyde as DNPH hydrazone by RP-HPLC; format: biochemical, Thermococcus guaymasensis; conditions: PDC (nonoxidative decarboxylation) reaction, 1 mM CoA, 0.1 mM TPP, Mg2+, optimal pH (9.5), 80°C, anaerobic
Text: PDC activity, acetaldehyde as DNPH hydrazone by RP-HPLC on TgPDC/POR

[7] = target: the molecule itself; assay: SEC; native enzyme from P. furiosus; HiLoad Superdex-200 in buffer E as a step of the purification; native molecular weight of approximately 260 kDa told in the discussion, how it was estimated is not told for this enzyme

Molecule: CC(C)(COP(=O)(O)OP(=O)(O)OC[C@H]1O[C@@H](n2cnc3c(N)ncnc32)[C@H](O)[C@@H]1OP(=O)(O)O)[C@@H](O)C(=O)NCCC(=O)NCCS [coenzyme A]
- POR activity, pyruvate- and CoA-dependent methyl viologen reduction (PfPDC/POR [1]): The pyruvate- and coenzyme A-dependent reduction of the methyl viologen was measured for POR activities

Molecule: CCNC(=O)CCNC(=O)[C@H](O)C(C)(C)COP(=O)(O)OP(=O)(O)OC[C@H]1O[C@@H](n2cnc3c(N)ncnc32)[C@H](O)[C@@H]1OP(=O)(O)O [desulfo-CoA]
- completely inhibitory (TgPDC/POR [2]): desulfo-CoA, an analogue of CoA, was completely inhibitory for the oxidation (POR) reaction
- % of activity with CoA (TgPDC/POR [3]): ~ 75%
- % of activity with CoA (PfPDC/POR [4]): ~ 80%

Molecule: bifunctional pyruvate decarboxylase/pyruvate ferredoxin oxidoreductase from Thermococcus guaymasensis, heterotetramer of PorA, PorB, PorD and Por/VorG (from UniProt W8CQB2 1-331; W8CR61 1-105) (complex)
- stoichiometry N [5]: 2

B1: TgPDC/POR (Thermococcus guaymasensis) (protein)
chain 1: MPIRTVMKANEAAAWAAKLAKPKVIAAFPITPSTLVPEKISEFVANGELDAEFIKVESEHSAISACVGASAAGVRTFTATASQGLALMHEVLFIAAGMRLPIVMAIGNRSLSAPINIWNDWQDSISERDTGWLQFYAENNQEALDLILIAYKVAEDERVLLPAMVGFDAFILTHTVEPVEIPDQELVDEFLGEYEPKHAYLASARPLTQGTLAFPAHYMEARYTVWQANENAKKVIDEVFAEFEKRFGRKYQKVEEYRTDDAEIIFVTMGSLAGTVKEYVDHLREKGIKAGAAKLTVYRPFPIEEVRELAKKAKVLALLEKNVTFSVGGALFQDFSRALINQEEKPKIVDFILGLGGRDVTFKDLDEALAIAQKALNGEKVDEVNWIGLRKEIL
chain 2: MAVRKPPITTREYWAPGHAACAGCGCAIALKLATKAFSEAMEEKYGDPNAFAIAQATGCMEVVSAVFPYTAWKVPWVHVAFENAAAAASGVEAAWKKLGRKGKILAIGGDGGTADIGMQALSGMLERRHNVVYLMYDNEAYMNTGIQRSSSTPYGAWTTTSPPGKYSIGEDKPKKWVALIAAAHQVPYVATASIGNPFDFVRKMKKAAKVDGPAFVQVHCTCPTGWKSPLEKGVEIARLAIETGVWPLFEIENGDFHNIKIQPPGGGAKVTREGGRIVAIEFKKPIEEYLKLQGRFKHLFKQPEAIDVMREQIKAMWKVLGVDVTLPKPEE
notes: native, purified anaerobically from T. guaymasensis cells; no tag; dimer of heterotetramers, 258 kDa by gel filtration; with Pyruvate synthase subunit PorD; Pyruvate/ketoisovalerate oxidoreductases common subunit gamma
- Km (purified protein): 530 ± 30 µM
- Vmax (purified protein): 18 µmol/min/mg
- Km [6]: 250 ± 50 µM
- Vmax [6]: 3.8 µmol/min/mg

B2: bifunctional pyruvate decarboxylase/pyruvate ferredoxin oxidoreductase from Pyrococcus furiosus, heterotetramer (complex)
chain 1: MPIRKVMKANEAAAWAAKLAKPKVIAAFPITPSTLIPEKISEFVANGELDAEFIKVESEHSAISACVGAAAAGVRTFTATASQGLALMHEILFIAAGMRLPIVMAIGNRALSAPINIWNDWQDTISQRDTGWMQFYAENNQEALDLILIAYKVAEDERVLLPAMVGFDAFILTHTVEPVEIPDQEVVDEFLGEYEPKHAYIDPARPITQGSLAFPAHYMESRYTVWEAMERAKKVIDEAFAEFEKKFGRKYQKIEEYKTEDADIIFVTMGSLAGTLKEWIDKKREEGYKVGAAKITVYRPFPVEEIRELAKKAKVLAFLEKNITIGLYGAVFTDASAALINESEKPLMVDFIVGLGGRDVTFNQLDEALEIAEKALKEGKVENPINWIGLRWELVK
chain 2: MAVRKPPITTREYWAPGHAACAGCGCATALRLATKALSEAMEEKYGDPNAFAIAHATGCMEVVSAVFPYTAWKAPWIHVAFENAAAVASGIEAAWKKLGRKGKILAIGGDGGTADIGLQALSGMLERWHNVLYLMYDNEAYMNTGIQRSSSTPYGAWTTTSPPGKYSVGEDKPKKWVALIAAAHQIPYVATASIGNPLDFVRKIKKAGKIDGPAFVQVLCTCPTGWRSPLEKGVEIARLAIETGIWPLFEIENGDIWNIKIQPPGGGAKVYKEGNRVVRIEFKKPIEEYLKLQGRFKHLFKRPEAIEELRNQVKAMWKVLGVEAILPRPEE
chain 3: MIEVRFHGRGGQGAVTAANILAEAAFLEGKYVQAFPFFGVERRGAPVTAFTRIDNKPIRIKTQIYEPDVVVVLDPSLLDAVDVTAGLKDEGIVIVNTEKSKEEVLEKLKKKPKKLAIVDATTIALEILGLPITNTAILGAVAKATGLVKIESIEEAIKDTFSGELGEKNARAAREAYEKTEVFEL
chain 4: MAESPFKADIERAQKELSEKMTPGAIVYIPGSSVINKTGSWRVFKPEFNRDKCVRCYLCYIYCPEPAIYLDEEGYPVFDYDYCKGCGICANECPTKAIEMVREVK
notes: alpha subunit (PorA) of pyruvate ferredoxin oxidoreductase, Pyrococcus furiosus; beta subunit (PorB) of pyruvate ferredoxin oxidoreductase, Pyrococcus furiosus; gamma subunit (Por/VorG) of pyruvate ferredoxin oxidoreductase, Pyrococcus furiosus; delta subunit (PorD) of pyruvate ferredoxin oxidoreductase, Pyrococcus furiosus; One heterotetramer (one copy of each subunit); the native enzyme is …
- stoichiometry N [7]: 2
